The results in this text go back to patent US7378503 (dated 2008).

In assay [1] the target is IGF-IR extracellular domain (human, UniProt P08069). The assay can be described thus: SPR.
The target of the next assay is rat IGF-IR (rat, UniProt P24062). In words: other, immunoprecipitation.
For a further assay, the target named is mouse IGF-IR (mouse, UniProt Q60751). The assay can be described thus: other, immunoprecipitation.

In general, Kd refers to the equilibrium constant for the complex coming apart. A high value points to weaker binding.

Chain of mouse IGF-IR (Q60751 31-936): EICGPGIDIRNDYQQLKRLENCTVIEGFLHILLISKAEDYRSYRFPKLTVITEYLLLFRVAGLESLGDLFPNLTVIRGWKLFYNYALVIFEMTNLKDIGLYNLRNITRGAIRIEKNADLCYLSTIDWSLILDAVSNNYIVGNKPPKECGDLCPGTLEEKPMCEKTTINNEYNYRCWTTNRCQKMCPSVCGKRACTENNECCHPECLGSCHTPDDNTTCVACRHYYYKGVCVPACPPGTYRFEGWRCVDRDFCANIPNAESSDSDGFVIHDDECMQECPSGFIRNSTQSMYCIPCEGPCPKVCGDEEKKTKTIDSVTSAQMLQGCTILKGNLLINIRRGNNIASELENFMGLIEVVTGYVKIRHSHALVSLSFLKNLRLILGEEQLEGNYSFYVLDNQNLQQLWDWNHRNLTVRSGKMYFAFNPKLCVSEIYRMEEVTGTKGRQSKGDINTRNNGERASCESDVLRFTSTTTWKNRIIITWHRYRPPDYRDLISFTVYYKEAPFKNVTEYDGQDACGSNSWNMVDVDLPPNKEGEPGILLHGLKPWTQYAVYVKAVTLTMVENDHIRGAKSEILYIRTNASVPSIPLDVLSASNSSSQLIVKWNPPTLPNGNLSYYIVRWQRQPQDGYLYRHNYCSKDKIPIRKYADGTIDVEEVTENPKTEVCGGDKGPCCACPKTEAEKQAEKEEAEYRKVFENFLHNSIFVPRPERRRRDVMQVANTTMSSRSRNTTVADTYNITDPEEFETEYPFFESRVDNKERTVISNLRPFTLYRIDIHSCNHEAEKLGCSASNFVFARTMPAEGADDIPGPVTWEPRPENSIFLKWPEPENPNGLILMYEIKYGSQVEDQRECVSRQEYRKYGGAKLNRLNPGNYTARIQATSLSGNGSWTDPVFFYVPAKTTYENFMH
Chain of rat IGF-IR (P24062 31-936): as the sequence (Q60751 31-936) above, with D271G, Y629F, M714L counted along it

B1: Antibody 23 (antibody, V domains shown)
VH: EVQLVQSGGGLVHPGGSLRLSCAGSGFTFSNYAMYWVRQAPGKGLEWVSAIGSGGGTYYADSVKGRFTISRDNAKNSLYLQMNSLRAEDMAVYHCARAPNWGSEAFDIWGQGTMVTVSS
VL: DIQMTQSPSSLSASVGDRVTITCRASQGISSWLAWYQQKPEKAPKSLIYAASSLQSGVPSRFSGSGSGTDFTLTISSLQPEDFATYYCQQYNSYPITFGQGTRLEIK
With B1, binding in assay [1] was put at a Kd of 0.194 nM.

B2: Antibody 1A (antibody, V domains shown)
VH: EVQLVQSGGGLVHPGGSLRLSCAGSGFTFRNYAMYWVRQAPGKGLEWVSAIGSGGGTYYADSVKGRFTISRDNAKNSLYLQMNSLRAEDMAVYYCARAPNWGSDAFDIWGQGTMVTVSS
VL: DIQMTQSPSSLSASVGDRVTITCRASQGISSWLAWYQQKPEKAPKSLIYAASSLQSGVPSRFSGSGSGTDFTLTISSLQPEDFATYYCQQYNSYPPTFGPGTKVDIK
Consider B2, for which binding in assay [1] was characterised by a dissociation constant (Kd) of 0.397 nM. The binding result with rat IGF-IR and with mouse IGF-IR was “no binding” in each case.

B3: Antibody 8 (antibody, V domains shown)
VH: EVQLVQSGGGLVHPGGSLRLSCAGSGFTFRSYAMYWVRQAPGKGLEWVSAIGSGGGTYYADSVKGRFTISRDNAKNSLYLQMNSLRAEDMAVYYCARAPNWGSDAFDIWGQGTMVTVSS
VL: DIQMTQSPSSLSASVGDRVTITCRASQGISSWLAWYQQKPEKAPKSLIYAASSLQSGVPSRFSGSGSGTDFTLTISSLQPEDFATYYCQQYNSYPPTFGPGTKVDIK
As to B3, the dissociation constant (Kd) in assay [1] was found to be 2.01 nM.
